From publication PMC12395305 (ACS Central Science, 2025)

Biological target: T1, green fluorescent protein (Aequorea victoria, engineered EGFP-type …)
T1 construct: green fluorescent protein; pI 5.4; also called GFP; GFP-wt; source: produced by the authors; expression and purification in the Supplementary Methods
Assay: SPR; αGFP nanobody variants and GFP; constants in Table S1; format and conditions not shown
Conditions: both partners purified

B1: αGFP-S54C (VHH)
VHH: QVQLVESGGALVQPGGSLRLSCAASGFPVNRYSMRWYRQAPGKEREWVAGMSCAGDRSSYEDSVKGRFTISRDDARNTVYLQMNSLKPEDTAVYYCNVNVGFEYWGQGTQVTVSS
notes: as the chain of m1 (nanobody chain of PDB 3OGO) with S54C; In the functional rows it carries linker 3c-rho on C54 (PEABS αGFP-S54-3c-rho); also called cysteine mutant; αGFP-S54C nanobody; source: bacterial expression vector, expressed and purified
B1 was tested, and the “fold reduction of affinity against the wild type” value was 25 fold.
